Source: patent publication US20150203577A1 (Chugai, published 2015)

Columns and labels:
[1] = molecular target: T1, mouse FcγRIII extracellular domain, C-terminal His tag (mouse, UniProt P08508 31-215); assay: SPR (Biacore T200); KD of H237-mIgG1/MRAL-k0 / KD of variant
T1 construct: Whole entry named; also called mFcγRIII; mFcgRIII
T1 chain: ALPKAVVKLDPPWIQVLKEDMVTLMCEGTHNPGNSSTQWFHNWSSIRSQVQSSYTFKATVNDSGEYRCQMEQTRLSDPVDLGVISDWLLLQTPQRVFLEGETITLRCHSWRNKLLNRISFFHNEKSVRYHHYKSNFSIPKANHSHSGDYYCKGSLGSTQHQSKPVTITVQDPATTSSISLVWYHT
Experimental: (§1) Each altered antibody was analyzed for its interaction with each Fcγ receptor prepared above using Biacore T100 (GE Healthcare Japan Corp.), Biacore T200 (GE Healthcare Japan Corp.), Biacore A100, or Biacore 4000. The running buffer used was HBS-EP+ (GE Healthcare Japan Corp.). The assay temperature was set to 25° C. The sensor chips used were chips prepared by immobilizing Protein L (ACTIGEN or BioVision) onto Series S Sensor Chip CM5 (GE Healthcare Japan Corp.) or Series S Sensor Chip CM4 (GE Healthcare Japan Corp.) by the amine coupling method.
(§2) In order to calculate the KD value of each altered antibody for FcγR, kinetic analysis was conducted according to the following method: first, the antibody of interest was captured onto any of these chips and allowed to interact with mFcγR diluted with a running buffer. For the obtained sensorgram, the assay results were globally fit into the 1:1 Langmuir binding model using Biacore Evaluation Software to calculate an association rate constant ka (L/mol/s) and a dissociation rate constant kd (1/s). From these values, the dissociation constant KD (mol/L) was calculated.

[2] = molecular target: T2, mouse FcγRII extracellular domain, C-terminal His tag (mouse, UniProt P08101 30-210); assay: SPR (Biacore T200), 1:1 fit
T2 construct: Whole entry named; also called mFcγRII; mFcgRII
T2 sequence: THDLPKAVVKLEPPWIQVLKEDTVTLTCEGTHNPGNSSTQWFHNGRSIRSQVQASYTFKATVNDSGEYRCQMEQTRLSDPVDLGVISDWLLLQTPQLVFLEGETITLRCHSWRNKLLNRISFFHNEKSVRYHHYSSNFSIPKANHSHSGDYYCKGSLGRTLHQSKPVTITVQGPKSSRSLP
Experimental: as §1, §2

[3] = molecular target: T1, mouse FcγRIII extracellular domain, …; assay: SPR (Biacore T200), 1:1 fit
Experimental: as §1, §2

[4] = molecular target: T3, mouse FcγRII extracellular domain with C-terminal His tag (mouse, UniProt P08101 30-210); assay: SPR Biacore T200
T3 construct: Made on the basis of NCBI NP-034317.1; also called mFcγRII; mFcgRII
T3 sequence: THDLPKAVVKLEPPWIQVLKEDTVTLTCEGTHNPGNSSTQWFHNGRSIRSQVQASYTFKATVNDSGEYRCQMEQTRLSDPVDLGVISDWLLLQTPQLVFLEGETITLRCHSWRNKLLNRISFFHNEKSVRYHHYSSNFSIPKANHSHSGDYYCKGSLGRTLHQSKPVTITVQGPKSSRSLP
Experimental: as §1, §2

[5] = molecular target: T4, mouse FcγRIII extracellular domain with C-terminal His tag (mouse, UniProt P08508 31-215); assay: SPR Biacore T200
T4 construct: Made on the basis of NCBI NP-034318.2; also called mFcγRIII; mFcgRIII
T4 chain: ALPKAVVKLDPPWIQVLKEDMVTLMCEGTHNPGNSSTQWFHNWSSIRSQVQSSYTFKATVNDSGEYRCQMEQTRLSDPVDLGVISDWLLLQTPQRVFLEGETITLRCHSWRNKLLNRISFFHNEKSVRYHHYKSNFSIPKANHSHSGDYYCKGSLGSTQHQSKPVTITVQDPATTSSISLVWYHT
Experimental: as §1, §2

[6] = molecular target: T3, mouse FcγRII extracellular domain with …; assay: SPR Biacore T200; remark: listed apart in the source
Experimental: as §1, §2

[7] = molecular target: T4, mouse FcγRIII extracellular domain with …; assay: SPR Biacore T200
Experimental: as §1, §2

B1: H237-MB534/MRAL-k0 (antibody, mouse IgG1, kappa)
heavy: QVQLQESGPGLVKPSETLSLTCAVSGHSISHDHAWSWVRQPPGEGLEWIGFISYSGITNYNPSLQGRVTISRDNSKNTLYLQMNSLRAEDTAVYYCARSLARTTAMDYWGEGTLVTVSSAKTTPPSVYPLAPGSAAQTNSMVTLGCLVKGYFPEPVTVTWNSGSLSSGVHTFPAVLQSDLYTLSSSVTVPSSTWPSETVTCNVAHPASSTKVDKKIVPRDCGCKPCICQPNEVEEVFIFPPKPKDVLTITLTPKVTCVVVDISKDDPEVQFSWFVDDVEVHTAQTQPREEQFNLTFRSVSELPIMHQDWLNGKEFKCRVDSAAFPAPIERTISKTKGRPKAPQVYTIPPPKEQMAKDKVSLTCMITDFFPEDITVEWQWNGQPAENYKNTQPIMDTDGSYFVYSKLNVQKSNWEAGNTFTCSVLHEGLHNHHTEKSLSHSPGK
light: not shown
notes: copies: 2 + 2
For B1, the “relative mFcγRIII-binding activity (mIgG1 = 1)” value [1] was 33.8 fold, the Kd [2] was 0.499 nM and the Kd [3] was 8.34 nM.

B2: H237-MB535/MRAL-k0 (antibody, mouse IgG1, kappa)
heavy: QVQLQESGPGLVKPSETLSLTCAVSGHSISHDHAWSWVRQPPGEGLEWIGFISYSGITNYNPSLQGRVTISRDNSKNTLYLQMNSLRAEDTAVYYCARSLARTTAMDYWGEGTLVTVSSAKTTPPSVYPLAPGSAAQTNSMVTLGCLVKGYFPEPVTVTWNSGSLSSGVHTFPAVLQSDLYTLSSSVTVPSSTWPSETVTCNVAHPASSTKVDKKIVPRDCGCKPCICQPNEVEEVFIFPPKPKDVLTITLTPKVTCVVVDISKDDPEVQFSWFVDDVEVHTAQTQPREEQFNLTFRSVSELPIMHQDWLNGKEFKCRVNSDAFPAPIERTISKTKGRPKAPQVYTIPPPKEQMAKDKVSLTCMITDFFPEDITVEWQWNGQPAENYKNTQPIMDTDGSYFVYSKLNVQKSNWEAGNTFTCSVLHEGLHNHHTEKSLSHSPGK
light: not shown
notes: copies: 2 + 2
For B2, the “relative mFcγRIII-binding activity (mIgG1 = 1)” value [1] was 8.5 fold, the Kd [2] was 0.498 nM and the Kd [3] was 33.2 nM.

B3: H237-MB536/MRAL-k0 (antibody, mouse IgG1, kappa)
heavy: QVQLQESGPGLVKPSETLSLTCAVSGHSISHDHAWSWVRQPPGEGLEWIGFISYSGITNYNPSLQGRVTISRDNSKNTLYLQMNSLRAEDTAVYYCARSLARTTAMDYWGEGTLVTVSSAKTTPPSVYPLAPGSAAQTNSMVTLGCLVKGYFPEPVTVTWNSGSLSSGVHTFPAVLQSDLYTLSSSVTVPSSTWPSETVTCNVAHPASSTKVDKKIVPRDCGCKPCICQPNEVEEVFIFPPKPKDVLTITLTPKVTCVVVDISKDDPEVQFSWFVDDVEVHTAQTQPREEQFNSTFRSVSELPIMHQDWLNGKEFKCRVDSDAFPAPIERTISKTKGRPKAPQVYTIPPPKEQMAKDKVSLTCMITDFFPEDITVEWQWNGQPAENYKNTQPIMDTDGSYFVYSKLNVQKSNWEAGNTFTCSVLHEGLHNHHTEKSLSHSPGK
light: not shown
notes: copies: 2 + 2
B3 was tested, and the “relative mFcγRIII-binding activity (mIgG1 = 1)” value [1] was 7.7 fold, the Kd [2] was 0.53 nM and the Kd [3] was 36.8 nM.

B4: H237-MB537/MRAL-k0 (antibody, mouse IgG1, kappa)
heavy: QVQLQESGPGLVKPSETLSLTCAVSGHSISHDHAWSWVRQPPGEGLEWIGFISYSGITNYNPSLQGRVTISRDNSKNTLYLQMNSLRAEDTAVYYCARSLARTTAMDYWGEGTLVTVSSAKTTPPSVYPLAPGSAAQTNSMVTLGCLVKGYFPEPVTVTWNSGSLSSGVHTFPAVLQSDLYTLSSSVTVPSSTWPSETVTCNVAHPASSTKVDKKIVPRDCGCKPCICQPNEVEEVFIFPPKPKDVLTITLTPKVTCVVVDISKDDPEVQFSWFVDDVEVHTAQTQPREEQFNLTFRSVSELPIMHQDWLNGKEFKCRVDSDAFPAPIERTISKTKGRPKAPQVYTIPPPKEQMAKDKVSLTCMITDFFPEDITVEWQWNGQPAENYKNTQPIMDTDGSYFVYSKLNVQKSNWEAGNTFTCSVLHEGLHNHHTEKSLSHSPGK
light: not shown
notes: copies: 2 + 2
B4 was tested, and the “relative mFcγRIII-binding activity (mIgG1 = 1)” value [1] was 8.9 fold, the Kd [2] was 0.412 nM and the Kd [3] was 31.7 nM.

B5: H237-MB542/MRAL-k0 (antibody, mouse IgG1, kappa)
heavy: QVQLQESGPGLVKPSETLSLTCAVSGHSISHDHAWSWVRQPPGEGLEWIGFISYSGITNYNPSLQGRVTISRDNSKNTLYLQMNSLRAEDTAVYYCARSLARTTAMDYWGEGTLVTVSSAKTTPPSVYPLAPGSAAQTNSMVTLGCLVKGYFPEPVTVTWNSGSLSSGVHTFPAVLQSDLYTLSSSVTVPSSTWPSETVTCNVAHPASSTKVDKKIVPRDCGCKPCICEPNEVEMVFIFPPKPKDVLTITLTPKVTCVVVDISKDDPEVQFSWFVDDVEVHTAQTQPREEQFNSTFRSVSELPIMHQDWLNGKEFKCRVDSDAFPAPIEKTISKTKGRPKAPQVYTIPPPKEQMAKDKVSLTCMITDFFPEDITVEWQWNGQPAENYKNTQPIMDTDGSYFVYSKLNVQKSNWEAGNTFTCSVLHEGLHNHHTEKSLSHSPGK
light: not shown
notes: copies: 2 + 2
For B5, the “relative mFcγRIII-binding activity (mIgG1 = 1)” value [1] was 3.4 fold, the Kd [2] was 0.547 nM and the Kd [3] was 83.3 nM.

B6: H237-MB544/MRAL-k0 (antibody, mouse IgG1, kappa)
heavy: QVQLQESGPGLVKPSETLSLTCAVSGHSISHDHAWSWVRQPPGEGLEWIGFISYSGITNYNPSLQGRVTISRDNSKNTLYLQMNSLRAEDTAVYYCARSLARTTAMDYWGEGTLVTVSSAKTTPPSVYPLAPGSAAQTNSMVTLGCLVKGYFPEPVTVTWNSGSLSSGVHTFPAVLQSDLYTLSSSVTVPSSTWPSETVTCNVAHPASSTKVDKKIVPRDCGCKPCICEPNEVEMVFIFPPKPKDVLTITLTPKVTCVVVDISKDDPEVQFSWFVDDVEVHTAQTQPREEQFNSTFRSVSELPIMHQDWLNGKEFKCRVNSDAFPAPIERTISKTKGRPKAPQVYTIPPPKEQMAKDKVSLTCMITDFFPEDITVEWQWNGQPAENYKNTQPIMDTDGSYFVYSKLNVQKSNWEAGNTFTCSVLHEGLHNHHTEKSLSHSPGK
light: not shown
notes: copies: 2 + 2
B6 was tested, and the “relative mFcγRIII-binding activity (mIgG1 = 1)” value [1] was 3.2 fold, the Kd [2] was 0.76 nM and the Kd [3] was 87.2 nM.

B7: H237-MB548/MRAL-k0 (antibody, mouse IgG1, kappa)
heavy: QVQLQESGPGLVKPSETLSLTCAVSGHSISHDHAWSWVRQPPGEGLEWIGFISYSGITNYNPSLQGRVTISRDNSKNTLYLQMNSLRAEDTAVYYCARSLARTTAMDYWGEGTLVTVSSAKTTPPSVYPLAPGSAAQTNSMVTLGCLVKGYFPEPVTVTWNSGSLSSGVHTFPAVLQSDLYTLSSSVTVPSSTWPSETVTCNVAHPASSTKVDKKIVPRDCGCKPCICEPNEVEMVFIFPPKPKDVLTITLTPKVTCVVVDISKDDPEVQFSWFVDDVEVHTAQTQPREEQFNSTFRSVSELPIMHQDWLNGKEFKCRVDSDAFPAPIERTISKTKGRPKAPQVYTIPPPKEQMAKDKVSLTCMITDFFPEDITVEWQWNGQPAENYKNTQPIMDTDGSYFVYSKLNVQKSNWEAGNTFTCSVLHEGLHNHHTEKSLSHSPGK
light: not shown
notes: copies: 2 + 2
With B7 the “relative mFcγRIII-binding activity (mIgG1 = 1)” value [1] was 3.9 fold, the Kd [2] was 0.589 nM and the Kd [3] was 71.7 nM.

B8: H237-MB549/MRAL-k0 (antibody, mouse IgG1, kappa)
heavy: QVQLQESGPGLVKPSETLSLTCAVSGHSISHDHAWSWVRQPPGEGLEWIGFISYSGITNYNPSLQGRVTISRDNSKNTLYLQMNSLRAEDTAVYYCARSLARTTAMDYWGEGTLVTVSSAKTTPPSVYPLAPGSAAQTNSMVTLGCLVKGYFPEPVTVTWNSGSLSSGVHTFPAVLQSDLYTLSSSVTVPSSTWPSETVTCNVAHPASSTKVDKKIVPRDCGCKPCICEPNEVEMVFIFPPKPKDVLTITLTPKVTCVVVDISKDDPEVQFSWFVDDVEVHTAQTQPREEQFNLTFRSVSELPIMHQDWLNGKEFKCRVDSDAFPAPIERTISKTKGRPKAPQVYTIPPPKEQMAKDKVSLTCMITDFFPEDITVEWQWNGQPAENYKNTQPIMDTDGSYFVYSKLNVQKSNWEAGNTFTCSVLHEGLHNHHTEKSLSHSPGK
light: not shown
notes: copies: 2 + 2
For B8, the “relative mFcγRIII-binding activity (mIgG1 = 1)” value [1] was 5.4 fold, the Kd [2] was 1 nM and the Kd [3] was 52.1 nM.

B9: H237-MB473/MRAL-k0 (antibody, mouse IgG1, kappa)
heavy: QVQLQESGPGLVKPSETLSLTCAVSGHSISHDHAWSWVRQPPGEGLEWIGFISYSGITNYNPSLQGRVTISRDNSKNTLYLQMNSLRAEDTAVYYCARSLARTTAMDYWGEGTLVTVSSAKTTPPSVYPLAPGSAAQTNSMVTLGCLVKGYFPEPVTVTWNSGSLSSGVHTFPAVLQSDLYTLSSSVTVPSSTWPSETVTCNVAHPASSTKVDKKIVPRDCGCKPCICEPAEVEEVFIFPPKPKDVLTITLTPKVTCVVVDISKDDPEVQFSWFVDDVEVHTAQTQPREEQFNSTFRSVSELPIMHQDWLNGKEFKCRVNSAAFPAPIEKTISKTKGRPKAPQVYTIPPPKEQMAKDKVSLTCMITDFFPEDITVEWQWNGQPAENYKNTQPIMDTDGSYFVYSKLNVQKSNWEAGNTFTCSVLHEGLHNHHTEKSLSHSPGK
light: not shown
notes: copies: 2 + 2
B9 was tested, and the Kd [4] was 3.65 nM, the Kd [5] was 196 nM and the “relative mFcγRII-binding activity (mIgG1 = 1)” value [6] was 57.6. For the same binder, the “relative mFcγRIII-binding activity (mIgG1 = 1)” value [7] was 1.4.
